Experimental findings from article doi:10.1101/2022.12.23.521728 (bioRxiv, 2022) are described below.

The assay has as its target ATP synthase F1 α subunit of G. stearothermophilus FoF1 (G. stearothermophilus, UniProt P09219 1-502). Nature of the assay: cryo-EM structure.

Sequence of ATP synthase F1 α subunit of G. stearothermophilus FoF1 (P09219 whole entry): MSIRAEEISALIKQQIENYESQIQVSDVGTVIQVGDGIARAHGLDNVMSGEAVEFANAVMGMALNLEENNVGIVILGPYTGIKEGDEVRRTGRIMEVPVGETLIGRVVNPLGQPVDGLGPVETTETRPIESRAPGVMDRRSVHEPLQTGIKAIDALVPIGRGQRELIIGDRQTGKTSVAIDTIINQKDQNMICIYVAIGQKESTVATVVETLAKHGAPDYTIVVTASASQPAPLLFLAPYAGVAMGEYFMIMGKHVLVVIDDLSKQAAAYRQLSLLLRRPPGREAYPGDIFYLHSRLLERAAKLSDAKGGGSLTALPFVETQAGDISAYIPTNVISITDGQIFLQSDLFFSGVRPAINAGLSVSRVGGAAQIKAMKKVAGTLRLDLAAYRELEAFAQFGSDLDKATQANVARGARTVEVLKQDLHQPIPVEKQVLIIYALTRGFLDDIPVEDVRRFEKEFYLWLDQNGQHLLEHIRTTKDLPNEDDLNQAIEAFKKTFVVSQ

B1: ATP synthase F1 γ subunit of G. stearothermophilus FoF1 (natural protein)
chain: ASLRDIKTRINATKKTSQITKAMEMVLTSKLNRAEKREIVRPYMEKIQEVVANVALAARASHPMLVSRPVKKTGYLVITSDRGLAGAYNSNVLRLVYQTIQKRHASPDEYAIIVIGRVGLSFFRKRNMPVILDITRLPDQPSFADIKEIARKTVGLFADGTFDELYMYYNHYVSAIQQEVTERKLLPLTDLAENKQRTVYEFEPSQEEILDVLLPQYAESLIYGALLDAKASEHAARMTAMKNATDNANELIRTLTLSYNRARQAAITQEITEIVAGANALQ
For B1, the binding result was “binds”.
